{
  "source": "patent JP2007530675A",
  "about": "(dated 2007)",
  "binders": {"B1": {"name": "HuLuc63 (antibody, human IgG1, V domains shown)", "VH": "EVQLVESGGGLVQPGGSLRLSCAASGFDFSRYWMSWVRQAPGKGLEWIGEINPDSSTINYAPSLKDKFIISRDNAKNSLYLQMNSLRAEDTAVYYCARPDGNYWYFDVWGQGTLVTVSS", "VL": "DIQMTQSPSSLSASVGDRVTITCKASQDVGIAVAWYQQKPGKVPKLLIYWASTRHTGVPDRFSGSGSGTDFTLTISSLQPEDVATYYCQQYSSYPYTFGQGTKVEIK", "notes": "human IgG1/κ, transiently expressed in 293-H cells; also called humanized Luc63"}, "B2": {"name": "Luc63 (antibody, V domains shown)", "VH": "EVKLLESGGGLVQPGGSLKLSCAASGFDFSRYWMSWVRQAPGKGLEWIGEINPDSSTINYTPSLKDKFIISRDNAKNTLYLQMSKVRSEDTALYYCARPDGNYWYFDVWGAGTTVTVSS", "VL": "DIVMTQSHKFMSTSVGDRVSITCKASQDVGIAVAWYQQKPGQSPKLLIYWASTRHTGVPDRFTGSGSGTDFTLTISNVQSEDLADYFCQQYSSYPYTFGGGTKLEIK", "notes": "mouse anti-human CS1 monoclonal, IgG2a; also called MuLuc63; muLuc63"}, "B3": {"name": "Luc69 (antibody, V domains shown)", "VH": "QVQLQQSGPELVKPGASVKISCKASGYAFSNSWMNWVKQRPGQGLEWIGRIYPGDGDTKSNGKFKGKATLTADKSSRAAYMQLSSLTSVDSAVYFCARSTMIMTGAMDYWGQGTSVTVSS", "VL": "DIVMTQSHKFMSTSVGDRVIITCKASQDVSTAVAWYQQKPGQSPKLLIYSASFRYTGVPDRFTGSGSGTDFTFTVSSVQAEDLAVYYCQQHYSTPPYTFGGGTKLEIK", "notes": "mouse anti-human CS1 monoclonal"}, "B4": {"name": "Luc34 (antibody, V domains shown)", "VH": "QVQLQQSGAELARPGASVKLSCKASGYTFTSYWMQWVKQRPGQGLEWIGAIYPGDGDTRYTQKFKGKATLTADKSSSTAYMQLSSLASEDSAVYYCARGKVYYGSNPFAYWGQGTLVTVSA", "VL": "DIQMTQSSSYLSVSLGGRVTITCKASDHINNWLAWYQQKPGNAPRLLISGATSLETGVPSRFSGSGSGKDYTLSITSLQTEDVATYYCQQYWSTPWTFGGGTKLEIK", "notes": "mouse anti-human CS1 monoclonal; also called Luc34.1"}, "B5": {"name": "Luc90 (antibody, V domains shown)", "VH": "QVQLQQPGAELVRPGASVKLSCKASGYSFTTYWMNWVKQRPGQGLEWIGMIHPSDSETRLNQKFKDKATLTVDKSSSTAYMQLSSPTSEDSAVYYCARSTMIATRAMDYWGQGTSVTVSS", "VL": "DIVMTQSQKSMSTSVGDRVSITCKASQDVITGVAWYQQKPGQSPKLLIYSASYRYTGVPDRFTGSGSGTDFTFTISNVQAEDLAVYYCQQHYSTPLTFGAGTKLELK", "notes": "mouse anti-human CS1 monoclonal, IgG2b; also called Luc90.H1; Luc90H1"}},
  "key": {"[1]": {"target": "T1, CS1 ECD-Fcγ3 fusion protein (human, UniProt Q9NQ25 23-226)", "T1 construct": "also called CS1-γ3; CS1-Fc-γ3; not shown: constant region of human IgG3 (human Fc-γ3) from the vector", "experiment": "direct binding ELISA, plate coated with 1 μg/ml soluble human CS1-human Fcγ3 fusion protein"}, "[2]": {"target": "T2, hu25/mu75 chimeric CS1-Fc (human/mouse chimera; human, UniProt P01857-1 99-330 = IgG part, limits assumed)", "T2 construct": "domain: Fc", "T2 sequence (P01857 other isoform, or with tags, fused parts or gaps mutant limits assumed)": "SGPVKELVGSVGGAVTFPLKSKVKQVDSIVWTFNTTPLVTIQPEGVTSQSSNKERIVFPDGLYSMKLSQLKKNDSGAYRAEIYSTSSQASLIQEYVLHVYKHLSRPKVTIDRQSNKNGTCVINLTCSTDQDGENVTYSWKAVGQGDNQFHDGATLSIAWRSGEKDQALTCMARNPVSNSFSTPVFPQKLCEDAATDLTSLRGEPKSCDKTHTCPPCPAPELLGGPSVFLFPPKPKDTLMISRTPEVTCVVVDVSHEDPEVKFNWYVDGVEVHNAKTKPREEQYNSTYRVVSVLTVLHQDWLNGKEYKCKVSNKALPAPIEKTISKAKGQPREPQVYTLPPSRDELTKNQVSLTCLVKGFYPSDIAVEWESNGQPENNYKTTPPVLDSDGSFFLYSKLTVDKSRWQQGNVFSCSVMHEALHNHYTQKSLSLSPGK", "experiment": "sandwich ELISA, captured chimeric CS1-Fc"}, "[3]": {"target": "T3, mu25/hu75 chimeric CS1-Fc (human/mouse chimera; human, UniProt P01857-1 99-330 = IgG part, limits assumed)", "T3 construct": "domain: Fc", "T3 sequence (P01857 other isoform, or with tags, fused parts or gaps mutant limits assumed)": "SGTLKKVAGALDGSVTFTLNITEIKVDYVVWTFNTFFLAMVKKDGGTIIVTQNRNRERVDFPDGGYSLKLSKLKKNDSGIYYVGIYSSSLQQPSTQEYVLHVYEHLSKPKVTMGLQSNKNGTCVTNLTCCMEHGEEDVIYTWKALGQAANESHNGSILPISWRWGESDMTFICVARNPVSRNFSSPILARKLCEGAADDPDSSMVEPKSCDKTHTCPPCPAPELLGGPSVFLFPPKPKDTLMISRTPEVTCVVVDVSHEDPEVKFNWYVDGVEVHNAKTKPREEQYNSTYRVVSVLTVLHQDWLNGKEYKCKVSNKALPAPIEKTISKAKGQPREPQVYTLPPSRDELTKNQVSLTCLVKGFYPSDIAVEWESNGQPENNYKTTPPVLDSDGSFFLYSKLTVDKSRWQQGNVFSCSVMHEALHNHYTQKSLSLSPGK", "experiment": "sandwich ELISA, captured chimeric CS1-Fc"}, "[4]": {"target": "T4, full-length wild-type human CS1 (human, UniProt Q9NQ25 23-335)", "T4 construct": "Native CS1 on K562 and Daudi cells, myeloma and B-cell lines, tonsil/synovial and patient plasma cells; also called SLAMF7; 19A", "experiment": "FACS on K562 and Daudi cells"}, "[5]": {"target": "T5, CS1 ECD-myc-GPI (human, UniProt Q9NQ25 23-226, GPI linkage at the C-terminus)", "T5 construct": "also called NSO-CS1; not shown: myc tag and GPI linkage signal of the myc-GPI vector", "experiment": "FACS on NSO-CS1 transfectants"}, "[6]": {"target": "T1, CS1 ECD-Fcγ3 fusion protein", "experiment": "ELISA on CS1-γ3 fusion protein"}, "[7]": {"target": "T6, human CS1-Fc fusion protein (Biacore analyte) (human, UniProt Q9NQ25 23-226, limits assumed)", "T6 construct": "kept apart; also called CS-Fc; not shown: Fc part", "experiment": "SPR (BIAcore 2000), antibody immobilised, CS1-Fc as analyte"}, "[8]": {"target": "T5, CS1 ECD-myc-GPI", "experiment": "cell-based or functional assay"}, "[9]": {"target": "human CS1-Fc fusion protein (Biacore analyte) (human) (UniProt Q9NQ25)", "experiment": "SPR (BIAcore 2000), antibody immobilised, CS1-Fc as analyte, bivalent analyte model"}},
  "data": [
    {"binder": "B1", "values": [
      {"measurement": "EC50", "setting": "[1]", "value": 0.0701, "unit": "µg/mL"}
    ]},
    {"binder": "B2", "values": [
      {"measurement": "EC50", "setting": "[1]", "value": 0.0661, "unit": "µg/mL"}
    ]},
    {"binder": "B3", "values": [
      {"measurement": "binding result", "setting": "[2]", "value": "no binding (tested: 2 μg/ml)"},
      {"measurement": "binding result", "setting": "[3]", "value": "no binding (tested: 2 μg/ml)"}
    ]},
    {"binder": "B4", "values": [
      {"measurement": "binding result", "setting": "[4]", "value": "binds"},
      {"measurement": "binding result", "setting": "[5]", "value": "binds"},
      {"measurement": "binding result", "setting": "[6]", "value": "binds"},
      {"measurement": "binding result", "setting": "[2]", "value": "no binding (tested: 2 μg/ml)"},
      {"measurement": "binding result", "setting": "[3]", "value": "no binding (tested: 2 μg/ml)"},
      {"measurement": "binding result", "setting": "[7]", "value": "binds"}
    ]},
    {"binder": "B5", "values": [
      {"measurement": "細胞傷害性(%) (ADCC, LDH release, PBMC effectors 20:1)", "setting": "[8]", "value": "~50", "unit": "%"},
      {"measurement": "binding result", "setting": "[2]", "value": "no binding (tested: 2 μg/ml)"},
      {"measurement": "binding result", "setting": "[3]", "value": "no binding (tested: 2 μg/ml)"},
      {"measurement": "fold higher binding affinity than Luc34.1", "setting": "[9]", "value": 28, "unit": "fold"},
      {"measurement": "fold higher binding affinity than Luc63.2", "setting": "[9]", "value": 5.5, "unit": "fold"}
    ]}
  ]
}
